Measured values taken from PMC4770077.

Columns and labels:
Experiment in all cases: BLI; biotinylated trimeric gp140 immobilised on streptavidin biosensors; Fabs 1-32 uM in solution; 30 C, 1,000 r.p.m.; kinetic buffer (1X PBS, 0.01% BSA, 0.02% Tween 20, 0.005% NaN3); association 4 min, dissociation 8 min; 1:1 binding model; mean of curves with R2 >= 0.95
[1] = target: 426c.TM4ΔV1-3 soluble trimeric gp140 (426c S278R N460D N463D G471S ΔV1 V2 V3) (HIV-1 (clade C, 426c))
[2] = target: 426c.TM5ΔV1-3 soluble trimeric gp140 (426c N276D S278R N460D N463D G471S ΔV1 V2 V3) (HIV-1 (clade C, 426c))
[3] = target: 426c.TM4 soluble trimeric gp140 (426c S278R N460D N463D G471S) (HIV-1 (clade C, 426c))
[4] = target: 426c.TM5 soluble trimeric gp140 (426c N276D S278R N460D N463D G471S) (HIV-1 (clade C, 426c))
[5] = target: 426c.TM2 soluble trimeric gp140 (426c S278A N460D N463D) (HIV-1 (clade C, 426c))
[6] = target: 426c.TM3 soluble trimeric gp140 (426c S278R N460D N463D) (HIV-1 (clade C, 426c))
[7] = target: 426c.TM1ΔV1-3 soluble trimeric gp140 (426c N276D N460D N463D ΔV1 V2 V3) (HIV-1 (clade C, 426c))
[8] = target: 426c.TM1 soluble trimeric gp140 (426c N276D N460D N463D) (HIV-1 (clade C, 426c))

germline 3BNC60 Fab
Ka [1]: 3490 M⁻¹
koff [1]: 0.398 s⁻¹
kon [1]: 1410 M⁻¹ s⁻¹
Ka [2]: 2180 M⁻¹
koff [2]: 0.477 s⁻¹
kon [2]: 1040 M⁻¹ s⁻¹

germline 12A21 Fab
Ka [3]: 334000 M⁻¹
koff [3]: 0.168 s⁻¹
kon [3]: 56200 M⁻¹ s⁻¹
Ka [4]: 38500 M⁻¹
koff [4]: 0.403 s⁻¹
kon [4]: 15500 M⁻¹ s⁻¹
Ka [5]: 201000 M⁻¹
koff [5]: 0.274 s⁻¹
kon [5]: 55200 M⁻¹ s⁻¹
Ka [6]: 174000 M⁻¹
koff [6]: 0.279 s⁻¹
kon [6]: 48500 M⁻¹ s⁻¹
Ka [1]: 311000 M⁻¹
koff [1]: 0.0305 s⁻¹
kon [1]: 9470 M⁻¹ s⁻¹
Ka [2]: 30800 M⁻¹
koff [2]: 0.0515 s⁻¹
kon [2]: 1590 M⁻¹ s⁻¹

germline VRC01 Fab
Ka [7]: 3.09e+06 M⁻¹
koff [7]: 0.00157 s⁻¹
kon [7]: 4840 M⁻¹ s⁻¹
Ka [3]: 1.08e+06 M⁻¹
koff [3]: 0.0264 s⁻¹
kon [3]: 28700 M⁻¹ s⁻¹
Ka [4]: 1.14e+07 M⁻¹
koff [4]: 0.00225 s⁻¹
kon [4]: 25600 M⁻¹ s⁻¹
Ka [5]: 628000 M⁻¹
koff [5]: 0.0579 s⁻¹
kon [5]: 36300 M⁻¹ s⁻¹
Ka [6]: 562000 M⁻¹
koff [6]: 0.064 s⁻¹
kon [6]: 36000 M⁻¹ s⁻¹
Ka [1]: 1.47e+06 M⁻¹
koff [1]: 0.00426 s⁻¹
kon [1]: 6250 M⁻¹ s⁻¹
Ka [2]: 1.06e+07 M⁻¹
koff [2]: 0.00065 s⁻¹
kon [2]: 6860 M⁻¹ s⁻¹
Ka [8]: 1.31e+06 M⁻¹
koff [8]: 0.0113 s⁻¹
kon [8]: 14800 M⁻¹ s⁻¹

germline VRC-CH31 Fab
Ka [2]: 8950 M⁻¹
koff [2]: 0.24 s⁻¹
kon [2]: 2400 M⁻¹ s⁻¹

germline VRC-PG19 Fab
Ka [7]: 353000 M⁻¹
koff [7]: 0.0315 s⁻¹
kon [7]: 11100 M⁻¹ s⁻¹
Ka [3]: 5.45e+06 M⁻¹
koff [3]: 0.018 s⁻¹
kon [3]: 98000 M⁻¹ s⁻¹
Ka [4]: 5.22e+06 M⁻¹
koff [4]: 0.016 s⁻¹
kon [4]: 83800 M⁻¹ s⁻¹
Ka [5]: 416000 M⁻¹
koff [5]: 0.172 s⁻¹
kon [5]: 71500 M⁻¹ s⁻¹
Ka [6]: 2.24e+06 M⁻¹
koff [6]: 0.0442 s⁻¹
kon [6]: 98900 M⁻¹ s⁻¹
Ka [1]: 8.9e+06 M⁻¹
koff [1]: 0.0027 s⁻¹
kon [1]: 24100 M⁻¹ s⁻¹
Ka [2]: 8.93e+06 M⁻¹
koff [2]: 0.00216 s⁻¹
kon [2]: 19300 M⁻¹ s⁻¹
Ka [8]: 287000 M⁻¹
koff [8]: 0.14 s⁻¹
kon [8]: 40000 M⁻¹ s⁻¹

germline VRC-PG20 Fab
Ka [7]: 1.24e+07 M⁻¹
koff [7]: 0.00104 s⁻¹
kon [7]: 13500 M⁻¹ s⁻¹
Ka [3]: 2.28e+07 M⁻¹
koff [3]: 0.00257 s⁻¹
kon [3]: 61100 M⁻¹ s⁻¹
Ka [4]: 1.78e+08 M⁻¹
koff [4]: 0.000553 s⁻¹
kon [4]: 112000 M⁻¹ s⁻¹
Ka [5]: 3.88e+06 M⁻¹
koff [5]: 0.0129 s⁻¹
kon [5]: 50900 M⁻¹ s⁻¹
Ka [6]: 1.2e+07 M⁻¹
koff [6]: 0.00487 s⁻¹
kon [6]: 60500 M⁻¹ s⁻¹
Ka [1]: 3.84e+07 M⁻¹
koff [1]: 0.000511 s⁻¹
kon [1]: 24500 M⁻¹ s⁻¹
Ka [2]: 2.45e+08 M⁻¹
koff [2]: 0.000149 s⁻¹
kon [2]: 41200 M⁻¹ s⁻¹
Ka [8]: 1.4e+07 M⁻¹
koff [8]: 0.00343 s⁻¹
kon [8]: 49700 M⁻¹ s⁻¹
